According to patent publication US20210032339A1 (AMPHIVENA THERAPEUTICS, published 2021):
Where “and” joins values, the source holds several entries; their conditions need not be identical. Identical values can stand only once.

Experiments:
[1] = biological target: T1, human CD33 (human, UniProt P20138 18-259); assay: cell-based or functional assay
[2] = biological target: T1, human CD33; assay: cell-based or functional assay; remark: listed apart in the source
[3] = biological target: T1, human CD33; assay: cell-based or functional assay; remark: listed apart in the source
[4] = biological target: T1, human CD33; assay: cell-based or functional assay; remark: listed apart in the source
[5] = biological target: T1, human CD33; assay: cell-based or functional assay; remark: listed apart in the source
[6] = biological target: T2, human CD3 (human, UniProt P07766 23-207); assay: flow cytometry, T cells
T2 construct: whole, on cells; Multi-chain complex on cells; also called hu CD3

[7] = biological target: T1, human CD33; assay: flow cytometry, KG-1 cells
Procedure: (§1) Cells were incubated with 100 μL of serial dilutions of CD33/CD3 tandem diabodies. After washing three times with FACS buffer the cells were incubated with 0.1 mL of 10 μg/mL mouse monoclonal anti-His antibody in the same buffer for 45 min on ice. After a second washing cycle, the cells were incubated with 0.1 mL of 15 μg/mL FITC-conjugated goat anti-mouse IgG antibodies under the same conditions as before. As a control, cells were incubated with the anti-His IgG followed by the FITC-conjugated goat anti-mouse IgG antibodies without anti-CD33 tandem diabodies. […] The fluorescence of 1×10⁴ living cells was measured using a Beckman-Coulter FC500 MPL flow cytometer using the MXP software (Beckman-Coulter, Krefeld, Germany) or a Millipore Guava EasyCyte flow cytometer using the Incyte software (Merck Millipore, Schwalbach, Germany). Mean fluorescence intensities of the cell samples were calculated using CXP software (Beckman-Coulter, Krefeld, Germany) or Incyte software (Merck Millipore, Schwalbach, Germany). After subtracting the fluorescence intensity values of the cells stained with the secondary and tertiary reagents alone the values were used for calculation of the KD values with the equation for one-site binding (hyperbola) of the GraphPad Prism (version 6.00 for Windows, GraphPad Software, La Jolla Calif. USA). […]

[8] = biological target: T1, human CD33; assay: flow cytometry, HL-60 cells
Procedure: as §1

[9] = biological target: T1, human CD33; assay: flow cytometry, U-937 cells
Procedure: as §1

[10] = biological target: T1, human CD33; assay: flow cytometry, HL-60 cells; remark: listed apart in the source
[11] = biological target: T2, human CD3; assay: flow cytometry, human T-cells

T2 sequence (P07766 23-207): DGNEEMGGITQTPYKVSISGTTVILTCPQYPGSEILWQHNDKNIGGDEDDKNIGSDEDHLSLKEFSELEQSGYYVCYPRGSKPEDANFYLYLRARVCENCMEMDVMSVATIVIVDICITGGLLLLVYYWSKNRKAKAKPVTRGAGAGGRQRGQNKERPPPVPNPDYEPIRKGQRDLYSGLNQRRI
T1 sequence (P20138 18-259): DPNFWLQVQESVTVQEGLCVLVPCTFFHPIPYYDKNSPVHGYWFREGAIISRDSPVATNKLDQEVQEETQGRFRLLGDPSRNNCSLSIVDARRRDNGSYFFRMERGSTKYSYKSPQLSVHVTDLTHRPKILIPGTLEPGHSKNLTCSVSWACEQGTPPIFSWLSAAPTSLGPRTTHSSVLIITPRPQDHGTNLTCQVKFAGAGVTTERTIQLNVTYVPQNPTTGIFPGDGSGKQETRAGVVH

Binder	lysis of KG-1 cells, IC50 [1]	EC50 mean, cytotoxicity on BV-173 [2]	EC50 mean, cytotoxicity on CHO-CD33 [2]	EC50 mean, cytotoxicity on HL-60 [2]	EC50 mean, cytotoxicity on K562 [2]	EC50 mean, cytotoxicity on KASUMI-1 [2]	EC50 mean, cytotoxicity on KG-1 [2]	EC50 mean, cytotoxicity on RPMI-8226 [2]	EC50 mean, cytotoxicity on THP-1 [2]	EC50 mean, cytotoxicity on U-937 [2]	EC50 on HL-60 (cytotoxicity) [3]	Kd [6]	Kd [7]	Kd [8]	Kd [9]	Kd [10]	Kd [11]	other results
CD33/CD3 tandem diabody 12 (bispecific antibody) DIQMTQSPSSLSASVGDRVTITCRSSTGAVTTSNYANWVQQKPGKAPKALIGGTNKRAPGVPSRFSGSLIGDKATLTISSLQPEDFATYYCALWYSNLWVFGQGTKVEIKGGSGGSQVQLVQSGAEVKKPGASVKVSCKASGYTFTSYDINWVRQAPGQGLEWMGWMNPNSGNTGFAQKFQGRVTMTRDTSTSTVYMELSSLRSEDTAVYYCARDRAVTDYYYGMDVWGQGTLVTVSSGGSGQSVLTQPPSASGTPGQRVTISCSGSRSNIGSNTVNWYQQLPGTAPKLLIYGNNQRPSGVPDRFSGSKSGTSASLAISGLQSEDEADYYCATWDDSLIGWVFGGGTKLTVLGGSGGSEVQLVESGGGLVQPGGSLRLSCAASGFTFSTYAMNWVRQAPGKGLEWVGRIRSKYNNYATYYADSVKDRFTISRDDSKNSLYLQMNSLKTEDTAVYYCARHGNFGNSYVSYFAYWGQGTLVTVSSAAAGSHHHHHH	~0.01 pM	1.4 pM	11.8 pM	1.4 pM	4.5 pM	1.3 pM	1 pM	14 pM	1.9 pM	0.9 pM	–	–	–	–	–	–	–	–
CD33/CD3 tandem diabody 14 (bispecific antibody) DIQMTQSPSSLSASVGDRVTITCRSSTGAVTTSNYANWVQQKPGKAPKALIGGTNKRAPGVPSRFSGSLIGDKATLTISSLQPEDFATYYCALWYSNLWVFGQGTKVEIKGGSGGSQVQLVQSGAEVKKPGASVKVSCKASGYTFTSYDINWVRQAPGQGLEWMGWMNPNSGNTGFAQKFQGRVTMTRDTSTSTVYMELSSLRSEDTAVYYCARDRANTDFSYGMDVWGQGTLVTVSSGGSGQSVLTQPPSASGTPGQRVTISCSGSRSNIGSNTVNWYQQLPGTAPKLLIYGNNQRPSGVPDRFSGSKSGSSASLAISGLQSEDEADYYCATWDDSLIGWVFGGGTKLTVLGGSGGSEVQLVESGGGLVQPGGSLRLSCAASGFTFSTYAMNWVRQAPGKGLEWVGRIRSKYNNYATYYADSVKDRFTISRDDSKNSLYLQMNSLKTEDTAVYYCARHGNFGNSYVSYFAYWGQGTLVTVSSAAAGSHHHHHH	–	–	–	–	–	–	–	–	–	–	1.6 pM	–	–	–	–	–	–	EC50, cytotoxicity on HL-60 [4]: 1.6 pM and 168 pg/mL; EC50, cytotoxicity on KG-1 [4]: 2.6 pM and 273 pg/mL; EC50, cytotoxicity on U-937 [4]: 3.6 pM and 378 pg/mL; EC50, cytotoxicity, mean of HL-60, U-937, KG-1 [4]: 2.6 pM and 273 pg/mL
CD33/CD3 tandem diabody 16 (bispecific antibody) DIQMTQSPSSLSASVGDRVTITCRSSTGAVTTSNYANWVQQKPGKAPKALIGGTNKRAPGVPSRFSGSLIGDKATLTISSLQPEDFATYYCALWYSNLWVFGQGTKVEIKGGSGGSQVQLVQSGAEVKKPGASVKVSCKASGYTFTSYDINWVRQAPGQGLEWMGWMNPNSGNTGFAQKFQGRVTMTRDTSTSTVYMELSSLRSEDTAVYYCARDRANTDYSLGMDVWGQGTLVTVSSGGSGQSVLTQPPSASGTPGQRVTISCSGSRSNIGSNTVNWYQQLPGTAPKLLIYGNNQRPSGVPDRFSGSKSGTSASLAISGLQSEDEADYYCATWDDSLIGWVFGGGTKLTVLGGSGGSEVQLVESGGGLVQPGGSLRLSCAASGFTFSTYAMNWVRQAPGKGLEWVGRIRSKYNNYATYYADSVKDRFTISRDDSKNSLYLQMNSLKTEDTAVYYCARHGNFGNSYVSYFAYWGQGTLVTVSSAAAGSHHHHHH	~0.5 pM and 5 pM	3.2 pM	24 pM	1.6 pM	4.8 pM	2.4 pM	1.9 pM	2.8 pM	6 pM	1.3 pM	–	–	–	–	–	–	–	EC50, calcein-release cytotoxicity on HL-60, 30 min [5]: 4.8 pM; EC50, calcein-release cytotoxicity on HL-60, 60 min [5]: 2.5 pM; EC50, calcein-release cytotoxicity on HL-60, 120 min [5]: 1.6 pM; EC50, calcein-release cytotoxicity on HL-60, 180 min [5]: 1.6 pM; EC50, calcein-release cytotoxicity on HL-60, 240 min [5]: 1.5 pM; EC50, calcein-release cytotoxicity on HL-60, 300 min [5]: 1.6 pM
CD33/CD3 tandem diabody 19 (bispecific antibody) DIQMTQSPSSLSASVGDRVTITCRSSTGAVTTSNYANWVQQKPGKAPKALIGGTNKRAPGVPSRFSGSLIGDKATLTISSLQPEDFATYYCALWYSNLWVFGQGTKVEIKGGSGGSQVQLVQSGAEVKKPGASVKVSCKASGYTFTSYYMHWVRQAPGQGLEWMGIINPSGGSTSYAQKFQGRVTMTRDTSTSTVYMELSSLRSEDTAVYYCARDVVPAAIDYYGMDVWGQGTTVTVSSGGSGQSVLTQPPSASGTPGQRVTISCSGSSSNIGSNTVNWYQQLPGTAPKLLIYSDNQRPSGVPDRFSGSKSGSSASLAISGLQSDDEADYYCATWDDSLNGAVFGGGTKLTVLGGSGGSEVQLVESGGGLVQPGGSLRLSCAASGFTFSTYAMNWVRQAPGKGLEWVGRIRSKYNNYATYYADSVKDRFTISRDDSKNSLYLQMNSLKTEDTAVYYCARHGNFGNSYVSYFAYWGQGTLVTVSSAAAGSHHHHHH	~5 pM	–	–	–	–	–	–	–	–	–	–	–	–	–	–	–	–	–
CD33/CD3 tandem diabody 22 (bispecific antibody, Non-covalent homodimer; also called TandAb 22) DIQMTQSPSSLSASVGDRVTITCRSSTGAVTTSNYANWVQQKPGKAPKALIGGTNKRAPGVPSRFSGSLIGDKATLTISSLQPEDFATYYCALWYSNLWVFGQGTKVEIKGGSGGSQVQLVQSGAEVKKPGSSVKVSCKASGGTFSSYGISWVRQAPGQGLEWMGGIIPIFGSAHYAQKFQGRVTITADESTSTAYMELSSLRSEDTAVYYCAREYYYDSSEWAFDIWGQGTLVTVSSGGSGQSVLTQPPSASGTPGQRVTISCSGSSSNIGSNTVKWYQQLPGTAPKLLIYSNNQRSSGVPDRFSGSKSGTSASLAISGLQSEDEADYYCAAWDDSLNGYVFGGGTKLTVLGGSGGSEVQLVESGGGLVQPGGSLRLSCAASGFTFSTYAMNWVRQAPGKGLEWVGRIRSKYNNYATYYADSVKDRFTISRDDSKNSLYLQMNSLKTEDTAVYYCARHGNFGNSYVSYFAYWGQGTLVTVSSAAAGSHHHHHH	–	–	–	–	–	–	–	–	–	–	3.2 pM	4100 pM	2000 pM	700 pM	8600 pM	700 pM	4100 pM	–
CD33/CD3 tandem diabody 23 (bispecific antibody, Non-covalent homodimer; also called TandAb 23) DIQMTQSPSSLSASVGDRVTITCRSSTGAVTTSNYANWVQQKPGKAPKGLIGGTNKRAPGVPSRFSGSLIGTDFTLTISSLQPEDFATYYCALWYSNLWVFGQGTKVEIKGGSGGSQVQLVQSGAEVKKPGSSVKVSCKASGGTFSSYGISWVRQAPGQGLEWMGGIIPIFGSAHYAQKFQGRVTITADESTSTAYMELSSLRSEDTAVYYCAREYYYDSSEWAFDIWGQGTLVTVSSGGSGQSVLTQPPSASGTPGQRVTISCSGSSSNIGSNTVKWYQQLPGTAPKLLIYSNNQRSSGVPDRFSGSKSGTSASLAISGLQSEDEADYYCAAWDDSLNGYVFGGGTKLTVLGGSGGSEVQLVESGGGLVQPGGSLRLSCAASGFTFSTYAMNWVRQAPGKGLEWVGRIRSKYNNYATYYADSVKDRFTISRDDSKNSLYLQMNSLKTEDTAVYYCARHGNFGNSYVSWFAYWGQGTLVTVSSAAAGSHHHHHH	–	–	–	–	–	–	–	–	–	–	2.8 pM	97200 pM	1000 pM	400 pM	5100 pM	400 pM	97200 pM	–
